Data set [1] concerns the target T1, Bacillus subtilis RarA K51A (Walker A motif mutant) (B. subtilis, UniProt O34528 1-421, K51A).
T1 sequence (looked up): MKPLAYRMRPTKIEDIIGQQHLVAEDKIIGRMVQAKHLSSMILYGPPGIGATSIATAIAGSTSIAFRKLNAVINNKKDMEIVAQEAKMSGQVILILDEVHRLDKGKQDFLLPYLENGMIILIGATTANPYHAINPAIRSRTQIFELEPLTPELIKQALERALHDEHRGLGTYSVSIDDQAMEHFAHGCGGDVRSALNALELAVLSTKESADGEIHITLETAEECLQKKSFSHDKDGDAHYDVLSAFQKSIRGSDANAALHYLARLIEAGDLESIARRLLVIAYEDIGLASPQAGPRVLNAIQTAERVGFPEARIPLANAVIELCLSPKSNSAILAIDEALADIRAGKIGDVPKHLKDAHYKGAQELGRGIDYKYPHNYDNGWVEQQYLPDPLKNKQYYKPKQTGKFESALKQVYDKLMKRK
As to the kind of experiment: native gel or EMSA.

Data set [2] deals with T2, Bacillus subtilis RarA (replication associated recombination protein A) (B. subtilis, UniProt O34528 1-421).
T2 sequence (looked up): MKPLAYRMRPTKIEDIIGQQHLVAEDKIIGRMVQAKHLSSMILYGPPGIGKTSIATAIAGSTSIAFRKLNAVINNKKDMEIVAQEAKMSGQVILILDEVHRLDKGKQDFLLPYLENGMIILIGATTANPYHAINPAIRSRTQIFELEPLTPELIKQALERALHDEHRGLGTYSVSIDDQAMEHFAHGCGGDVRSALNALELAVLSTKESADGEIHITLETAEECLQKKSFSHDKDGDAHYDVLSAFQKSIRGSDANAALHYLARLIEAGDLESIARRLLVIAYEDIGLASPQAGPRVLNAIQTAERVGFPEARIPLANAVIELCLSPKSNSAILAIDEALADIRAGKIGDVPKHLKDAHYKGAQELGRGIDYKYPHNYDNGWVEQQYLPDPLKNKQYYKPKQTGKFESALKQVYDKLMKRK
The experiment in a line: native gel or EMSA.

The next data set deals with T3, RarA (Bacillus subtilis, UniProt O34528 1-421).
T3 sequence: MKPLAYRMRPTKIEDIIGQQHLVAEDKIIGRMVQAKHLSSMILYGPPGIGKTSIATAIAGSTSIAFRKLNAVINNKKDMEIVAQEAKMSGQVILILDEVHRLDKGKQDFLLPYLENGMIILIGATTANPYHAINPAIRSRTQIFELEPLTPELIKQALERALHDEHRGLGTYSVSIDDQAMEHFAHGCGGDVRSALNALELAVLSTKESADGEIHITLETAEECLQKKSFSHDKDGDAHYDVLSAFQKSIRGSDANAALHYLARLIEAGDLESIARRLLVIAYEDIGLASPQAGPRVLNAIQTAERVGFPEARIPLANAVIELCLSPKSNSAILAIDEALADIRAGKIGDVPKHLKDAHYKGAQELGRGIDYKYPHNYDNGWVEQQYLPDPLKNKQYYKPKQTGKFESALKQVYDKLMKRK
As to the kind of experiment: EMSA.

B1: Bacillus subtilis SsbA (single stranded binding protein A) (natural protein, B. subtilis, UniProt P37455 1-172, looked up)
chain: MLNRVVLVGRLTKDPELRYTPNGAAVATFTLAVNRTFTNQSGEREADFINCVTWRRQAENVANFLKKGSLAGVDGRLQTRNYENQQGQRVFVTEVQAESVQFLEPKNGGGSGSGGYNEGNSGGGQYFGGGQNDNPFGGNQNNQRRNQGNSFNDDPFANDGKPIDISDDDLPF
In the case of B1, the binding result in data set [1] and in data set [2] was “binds” throughout.

B2: SsbBA chimera (SsbB with the last 9 terminal acidic residues of SsbA) (other, B. subtilis, UniProt C0SPB6 1-113, looked up)
chain: MFNQVMLVGRLTKDPDLRYTSAGAAVAHVTLAVNRSFKNASGEIEADYVNCTLWRKTAENTALYCQKGSLVGVSGRIQTRSYENEEGVNVYVTEVLADTVRFMDPKPREKAADDISDDDLPF
On to B2, for which, in data set [2], the binding result is “binds”.

B3: dsDNA (100U/100D) (dsDNA)
DNA 1: GGGCGAATTGGGCCCGACGTCGCATGCTCCTCTAGACTCGAGGAATTCGGTACCCCGGGTTCGAAATCGATAAGCTTACAGTCTCCATTTAAAGGACAAG
DNA 2: CTTGTCCTTTAAATGGAGACTGTAAGCTTATCGATTTCGAACCCGGGGTACCGAATTCCTCGAGTCTAGAGGAGCATGCGACGTCGGGCCCAATTCGCCC
In the data set with RarA, B3 had a Kd of about 37 nM.
